{"source": "paper PMC1450317", "target": "T1, TSLP receptor (TSLPR) (mouse (endogenous in mouse thymocytes)) (UniProt Q8CII9)", "T1 sequence": "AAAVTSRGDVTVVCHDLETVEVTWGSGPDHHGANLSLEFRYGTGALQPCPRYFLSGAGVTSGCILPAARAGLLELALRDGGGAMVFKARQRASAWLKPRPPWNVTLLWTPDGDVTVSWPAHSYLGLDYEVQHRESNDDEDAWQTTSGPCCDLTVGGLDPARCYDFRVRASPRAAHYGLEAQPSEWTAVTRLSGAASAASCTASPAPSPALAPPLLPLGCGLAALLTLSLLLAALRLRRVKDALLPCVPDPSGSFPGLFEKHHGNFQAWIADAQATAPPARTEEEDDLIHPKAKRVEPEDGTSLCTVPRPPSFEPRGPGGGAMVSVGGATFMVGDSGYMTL", "data": [{"binder": "thymic stromal derived lymphopoietin (TSLP), recombinant mouse (ligand) YNFSNCNFTSITKIYCNIIFHDLTGDLKGAKFEQIEDCESKPACLLKIEYYTLNPIPGCPSLPDKTFARRTREALNDHCPGYPETERNDGTQEMAQEVQNICLNQTSQILRLWYSFMQSPE", "values": [{"measurement": "FoxP3 mRNA (real-time PCR, FoxP3/18S) in purified CD4+CD8-CD25+ adult thymocytes cultured with TSLP for two days", "result": 2, "unit": "fold"}, {"measurement": "FoxP3 mRNA (real-time PCR, FoxP3/18S) in purified CD4+CD8-CD25- adult thymocytes cultured with TSLP for two days", "result": 10, "unit": "fold"}]}]}
